Drawing on article PMC9597087, this text covers mobility fraction (FRAP) for 1 substance.

The target in this assay is microtubules (human (endogenous in U2-OS)) (UniProt Q71U36). The experiment in a line: FRAP (fluorescence recovery after photobleaching); living U2-OS cells 48h after transfection, interphase, no STLC; 1.5 um^2 areas bleached, spinning disk confocal; traces analysed with easyFRAP, normalised to pre-bleaching intensity.

“GFP-tagged Eg5(T107N) (from UniProt P52732 1-1056) (natural protein)”: the mobility fraction (FRAP) is 0.06.
